One data set deals with Smu2. Description: Kinetic parameters for Smu2. The class given is biochemical, Streptococcus mutans. Particulars: 100 uM menadione. The method, then: Quantitative assays using CB 1954 or SN 23862 as substrate were carried out at 37° C. by HPLC as previously described (2) (3). […] Incubation times varied according to the enzyme activity being studied.
For the next data set, the system named is Pae3. Description: Kinetic parameters for Pae3. Type of data set: biochemical, Pseudomonas aeruginosa. Conditions: menadione as substrate, NADPH as cofactor. How it is done: […] […] Incubation times varied according to the enzyme activity being studied.
The protein encoded by Pae3 was overexpressed in E. coli and purified by anion exchange chromatography.

The next data set has as its target C. jejuni NfnB (Campylobacter jejuni, UniProt Q0P9I8). Particulars: 20 μM menadione.
The next data set addresses H. influenzae NfnB (Haemophilus influenzae, UniProt Q57431). Conditions: menadione 100 μM.
Data set [1] is classed as biochemical. Conditions: for Cofactor: Table 6.
Data set [2] concerns recombinant enzymes (antigens). Description: Polyclonal antisera titres by ELISA. Type of data set: binding. Conditions: rabbit antiserum; for Post-boost titre: 10 days after booster; for Pre-boost titre (50%): after 8 weeks. How it is done: Polyclonal antisera were raised against recombinant enzymes by immunising rabbits with […] of protein in 50% PBS:50% Freund's complete adjuvant, total volume 400 μl. Blood was collected by ear bleed after 6-8 weeks and again 10 days after a booster immunisation of protein, and titre assessed by ELISA. 96-well plates were coated with 1 μg ml^−1 of the proteins and blocked with 10% v/v foetal calf serum (FCS), antibodies were diluted in assay buffer (1% FCS) and applied in doubling dilutions across the plate from 1 in 100 to 1 in 51 200 or 1 in 150 to 1 in 76 800. A secondary antibody conjugated with HRP (dilution 1 in 10 000) was used to develop the assay with 3,3′,5,5′-tetramethylbenzidine (TMB) as substrate.
Antisera to E. coli B NfnB and six novel proteins (Haemophilus influenzae and Campylobacter jejuni NfnB homologues, YdgI and YodC of Bacillus subtilis, YwrO of B. amyloliquefaciens and Porphyromonas gingivalis YwrO homologue) have been raised in rabbits by inoculation with 100 μg of protein in PBS+ Freund's complete adjuvant. Titres were assessed by ELISA after 8 weeks, and 10 days after a booster inoculation of a further 100 μg of protein per rabbit. Pre-immune sera were also tested.
96 well plates were coated overnight at 4° C. with the antigens at 1 μg/ml. After washing and blocking antisera were added in doubling dilutions in an appropriate range across the plates. The plates were developed using goat anti-rabbit IgG peroxidase conjugate with TMB as substrate, and read at 450 nm.

A short description of data set [3]: Nitroreductase enzyme assay with CB 1954 as substrate (HPLC). Particulars: for CB1954 kcat: Table 1. Type of data set: biochemical.
The subject of data set [4] is recombinant enzymes (antigens). In words: Western blots of antigens with rabbit antisera. Type of data set: binding. Particulars: antisera 1/10000 or 1/20000, ECL detection. How it is done: Recombinant enzymes were run on SDS PAGE 4-20% gradient at 0.05, 0.5, 5, 50 and 500 ng with 500 ng of the other antigens to test cross-reactivity. The antisera were added at a dilution of 1/10 000 or 1/20 000. Secondary antibody dilutions were as shown above and detection was by ECL (Amersham).
Antigens were run on SDS PAGE 4-20% gradient at 0.05, 0.5, 5, 50 and 500 ng with 500 ng of other antigens to test cross-reactivity. The antisera were added at a dilution of 1/10000 (α-P. gingivalis YwrO, α-YwrO BAM and α-H. influenzae NfnB) or 1/20000 (α-E. coli B NfnB and α-YdgI). Secondary antibody dilutions were as shown above and detection was by ECL.
(In western blotting, separated proteins are transferred to a membrane and probed.)

A short description of data set [5]: Flavin reductase assay with FMN and FAD. Type of data set: biochemical. Particulars: for Flavin reductase: Table 6. How it is done: (§1) Assays were carried out spectrophotometrically at 37° C. in 10 mM Tris pH 7.5 using cytochrome c as terminal electron acceptor.
A short description of data set [6]: Quinone reductase assay with menadione, cytochrome c as terminal electron acceptor. Conditions: for Quinone reductase: Table 6. The class given is biochemical. The method, then: as §1
A short description of data set [7]: Nitroreductase enzyme assay with SN 23862 as substrate (HPLC). The class given is biochemical.
The subject of a further data set is V79 cells. In words: In vitro cytotoxicity test, prodrug + enzyme + cofactor, SRB assay. The class given is cell-based. Conditions: for in vitro cytotoxicity of SN 23862 with enzyme: FIG. 4. How it is done:
Microtitre plates (96 well) were obtained pre-seeded with V79 cells at 10,000 cells/ml (European Collection of Animal Cell Cultures, ECACC) in DMEM+10% foetal calf serum. All treatments were prepared on duplicate plates and transferred to the cells prior to adding enzyme (10 μl) to the appropriate wells. […] Enzymes were diluted in sterile PBS. All aqueous solutions were filter sterilised before use and operations carried out aseptically in a laminar flow hood. […] Cytotoxicity was quantified by sulphorhodamine B (SRB) assay. Briefly, the growth medium was removed and the cells fixed by addition of 100 μl per well of cold 10% TCA for 30 min. The TCA was removed and the fixed cells washed with water before adding 100 μl per well of 0.4% dye in 1% acetic acid and incubating at room temperature for 30 min. Excess dye was removed and the wells washed 4 times with 1% acetic acid. After air drying at room temperature the dye was solubilised by adding 100 μl of 10 mM Tris to each well and shaking for 15 min. […] Cytotoxicity towards treated cells was expressed as % of A492 of untreated controls and statistical analysis was performed using the Mann-Whitney test. ED50's were caculated using probit analysis.

Data set [8] is classed as biochemical. Conditions: Table 6.
Setting [9] is: Table 6, 37° C., read-out: Km CB 1954.
The mark [10] stands for this setting: listed as P. gingivalis YwrO homologue.
Where [11] appears, read: listed as YwrO of P. gingivalis.

Entries after “also recorded” stand apart in the source; their conditions may differ. Read-outs that look alike come from different tables or passages of the source.

Chain of C. jejuni NfnB (Q0P9I8 entry or part of it): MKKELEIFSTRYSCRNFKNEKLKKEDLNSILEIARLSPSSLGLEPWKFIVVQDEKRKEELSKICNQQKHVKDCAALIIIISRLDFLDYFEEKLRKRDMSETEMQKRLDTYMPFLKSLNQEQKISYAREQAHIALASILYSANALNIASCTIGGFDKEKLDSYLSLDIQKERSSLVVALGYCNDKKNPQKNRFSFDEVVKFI

As for NADPH, the figures for the Km in the data set on Smu2 and with Pae3 were 1.3 µM and 308 µM, respectively. Moreover, the kcat was determined as 188.7 s⁻¹ with Smu2, 33.8 s⁻¹ in the data set on Pae3, 62.5 s⁻¹ on C. jejuni NfnB and 154.2 on H. influenzae NfnB.

B1: Bam YwrO: nitroreductase from B. amyloliquefaciens, SEQ ID NO: 2 (protein, listed as Bacillus amyloliquefaciens)
chain: VKVLVLAVHPDMENSAVNKAWAEELKKHDELTVRELYKEYPDGQIDAEKERQLCEQYDRIVFQFPLYWYSAPPLLKTWMDHVLSYGWAYGSKGKALHGKELMLAVSVGAGEDAYQAGGSNHFTLSELLRPFQAMANFTGMTYLPAFALYGVNGADATDIHDNAKRLAAYIKKSF
As to B1, the Km – broadly, the concentration of substrate that gives half-maximal velocity – in data set [1] (read-out: Km for NADPH as cofactor) turned out to be 40 µM; in data set [3] (read-out: Km for CB1954) it was 617 µM; in [5] (read-out: Km for FAD), 209 µM; in data set [5] (read-out: Km for FMN) it was 53 µM; in data set [6] (read-out: Km for menadione) it was 3.4 µM. Besides, the Post-boost titre in [2] is 2800. Moreover, the “Pre-boost titre (50%)” value in data set [2] amounted to 1200. In addition, the kcat for CB1954 (text) in data set [3] is 8.2 s⁻¹. Besides, the “reduction of CB1954: activity and product formed” value (shortened to “reduction of CB1954”) in [3] stood at 4HX product only. The CB1954 kcat in [3] is 2 s⁻¹. The “CB 1954 product” value in data set [3] (Table 1, purified enzymes) is listed as 4HX. Besides, the “amount of antigen detected by its antiserum in Western blot” value (shortened to “amount of antigen detected”) in [4] was 500 ng. In data set [5], the “flavin reductase activity” value was “has azoreductase and flavin reductase activity”. The “SN23862 Km” value in [7] (Table 1) is “inactive”. In data set [7] (Table 1), the SN23862 kcat result was “inactive”. Also, the “activity with SN23862” value in [7] (listed as YwrO BAM) is “not SN23862”; in data set [7] (listed as YwrO of B. amyloliquefaciens), “inactive with this substrate”.

B2: E. coli NfnB: the known E. coli B nitroreductase enzyme (NfnB) (protein)
chain: MDIISVALKRHSTKAFDASKKLTPEQAEQIKTLLQYSPSSTNSQPWHFIVASTEEGKARVAKSAAGNYVFNERKMLDASHVVVFCAKTAMDDVWLKLVVDQEDADGRFATPEAKAANDKGRKFFADMHRKDLHDDAEWMAKQVYLNVGNFLLGVAALGLDAVPIEGFDAAILDAEFGLKEKGYTSLVVVPVGHHSVEDFNATLPKSRLPQNITLTEV
Turning to B2, in data set [3], the kcat for CB1954 (text) stood at 6 s⁻¹ and the CB1954 kcat is 6 s⁻¹. The “CB 1954 product” value in data set [3] (Table 1, purified enzymes) is given as 2/4HX. The “kcat for CB1954 (text)” value in [3] (listed as E. coli enzyme) is given as “about 6”. Moreover, the Km in [3] (summary statement, read-out: Km for CB1954) was approximately 862 µM. Further, in data set [4], the “amount of antigen detected” value is reported as 5 ng. In data set [7] (Table 1), this molecule registered an SN23862 kcat of 26.4 s⁻¹.

B3: P. gingivalis YwrO: nitroreductase from Porphyromonas gingivalis, SEQ ID NO: 25 (protein, listed as Porphyromonas gingivalis)
chain: MKKTLVIVVHPDLTKSVINKAWAKAIEGAATIHHLYEQYPNGQIDLAHEQALLEAHDRIVFQFPLYWYAAPYLLKKWMDEVFTEGWAYGAGGDKMEGKEICAAVSCGSPKSAFAEGAQQCHTLRSYLNVFDGIAAFLRARFTGYHACYDSYNPRLPEMLPANCEAYLRFIKGE
Turning to B3, the Cofactor entry in data set [1] is listed as “NADH”. The Post-boost titre in data set [2] came out at 3100. The “Pre-boost titre (50%)” value in [2] was 1000. Further, in [3], the “kcat (CB 1954)” value is 3.2 s⁻¹. Further, in data set [3], the kcat for CB1954 (text) was determined as 3.2 s⁻¹. Moreover, the “reduction of CB1954” value in data set [3] is given as “only the 4HX reduction product”. In addition, the Km in [3] (setting [9]) and in [3] (read-out: Km for CB1954) was 1200 µM in each case. Also, the “CB 1954 product” value in data set [3] (Table 6, recombinant enzymes) turned out to be 4HX. The “in vitro cytotoxicity of SN 23862 with enzyme” value with V79 cells is on record as “lack of activity”. The “amount of antigen detected” value in data set [4] amounted to 500 ng. The Azo-Reductase result in data set [8] was “Yes”. For the same molecule, the Flavin reductase entry in [5] is “No”. Besides, the “flavin reductase activity” value in data set [5] (setting [10]) is “inactive with menadione or flavins”; in data set [5] (setting [11]), “little activity with menadione or flavins”. Further, the Quinone reductase entry in data set [6] is recorded as “No”. Also, the “activity with menadione / quinone reductase” value in [6] (setting [10]) is “inactive with menadione or flavins”; in data set [6] (setting [11]), “little activity with menadione or flavins”. Further, in data set [7] (Table 6), the “SN 23862 acitvity” value was “Yes”. Further, the “activity with SN23862” value in data set [7] (setting [10]) is “active with SN23862; also recorded: too slow for kinetic parameters to be calculated accurately”.

B4: H. influenzae NfnB: nitroreductase from H. influenzae, SEQ ID NO: 17 (protein, listed as Haemophilus influenzae)
chain: MTQLTREQVLELFHQRSSTRYYDPTKKISDEDFECILECGRLSPSSVGSEPWKFLVIQNKTLREKMKPFSWGMINQLDNCSHLVVILAKKNARYDSPFFVDVMARKGLNAEQQQAALTKYKALQEEDMKLLENDRTLFDWCSKQTYIALANMLTGASALGIDSCPIEGFHYDKMNECLAEEGLFDPQEYAVSVAATFGYRSRDIAKKSRKGLDEVVKWVG
On to B4, for which, in data set [1], the Cofactor result is listed as “NADPH”. Moreover, in [2], the Post-boost titre was 760 and the “Pre-boost titre (50%)” value was found to be 180. In addition, the “reduction of CB1954” value in [3] is on record as “form the 4HX reduction product of CB1954”. Besides, the “kcat (CB 1954)” value in [3] (Table 6, 37° C.) was 56.2 s⁻¹. The Michaelis constant (Km) in [3] (setting [9]) came out at 690 µM. Moreover, in data set [3] (Table 6, recombinant enzymes), the “CB 1954 product” value came out at 4HX. For the same molecule, the “in vitro cytotoxicity of CB 1954 with enzyme” value in the data set with V79 cells (FIG. 3) was “most potent”. Moreover, the “in vitro cytotoxicity of SN 23862 with enzyme” value in the data set with V79 cells is reported as “most potent”. In data set [8], the Azo-Reductase entry is given as “No”. For the same molecule, in [5], the Flavin reductase entry is “Weak”. Moreover, the “flavin reductase activity” value in [5] (listed as H. influenzae NfnB homologue) is “lacks activity with the quinone menadione and flavins FMN or FAD; also recorded: little activity”. For the same molecule, in data set [6], the “activity with menadione / quinone reductase” value is recorded as “lacks activity with the quinone menadione” and the Quinone reductase entry is “Yes”. In data set [7], the “activity with SN23862” value was “weak activity with SN23862”. The “SN 23862 acitvity, second number of the cell (kcat)” value in [7] (Table 6, HPLC assay) is recorded as 39.8. Also, the Km in data set [7] (Table 6, HPLC assay, read-out: SN 23862 acitvity, first number of the cell (Km)) worked out at 3360 µM.

The values above are taken from patent US20040014191A1, “Nitroreductase enzymes” (priority 1999, published 2004).
